Reference: patent US20210292396A1
Where “and” joins values, the source holds several entries; their conditions need not be identical. Equal entries are not always repeated.

Tests used:
Test in all cases: cell-based or functional assay
[1] = biological target: HIV Env of isolate ZM247v1(Rev-) (HIV)
[2] = biological target: HIV Env of isolate P0402_C2_11 (HIV)
[3] = biological target: HIV Env of isolate 6244_13_B5_4576 (HIV)
[4] = biological target: HIV Env of isolate CNE5 (HIV)
[5] = biological target: HIV Env of isolate 3103.v3.c10 (HIV)
[6] = biological target: HIV Env of isolate 1054_07_TC4_1499 (HIV)
[7] = biological target: HIV Env of isolate ZM249M.PL1 (HIV)
[8] = biological target: HIV Env of isolate 6535.3 (HIV)
[9] = biological target: HIV Env of isolate SC422661.8 (HIV)
[10] = biological target: HIV Env of isolate Ce704809221_1B3 (HIV)
[11] = biological target: HIV Env of isolate ZM214M.PL15 (HIV)
[12] = biological target: HIV Env of isolate Ce1176_A3 (HIV)
[13] = biological target: HIV Env of isolate SC05_8C11_2344 (HIV)
[14] = biological target: HIV Env of isolate CNE17 (HIV)
[15] = biological target: HIV Env of isolate Ce2060_G9 (HIV)
[16] = biological target: HIV Env of isolate X1254_c3 (HIV)
[17] = biological target: HIV Env of isolate 0330.v4.c3 (HIV)
[18] = biological target: HIV Env of isolate PVO.4 (HIV)
[19] = biological target: HIV Env of isolate ZM109F.PB4 (HIV)
[20] = biological target: HIV Env of isolate 3301.v1.c24 (HIV)
[21] = biological target: HIV Env of isolate T278-50 (HIV)
[22] = biological target: HIV Env of isolate 7030102001E5(Rev-) (HIV)
[23] = biological target: HIV Env of isolate 928-28 (HIV)
[24] = biological target: HIV Env of the 113-member cross-clade virus panel (Table 6)
[25] = biological target: HIV Env of isolate ZM233M.PB6 (HIV)
[26] = biological target: HIV Env of isolate REJO4541.67 (HIV)
[27] = biological target: HIV Env of isolate 0815.v3.c3 (HIV)
[28] = biological target: HIV Env of isolate 6811.v7.c18 (HIV)
[29] = biological target: HIV Env of isolate X1193_c1 (HIV)
[30] = biological target: HIV Env of isolate 1394C9G1(Rev-) (HIV)
[31] = biological target: HIV Env of isolate 6952.v1.c20 (HIV)
[32] = biological target: HIV Env of isolate TRJO4551.58 (HIV)

B1: ePGT121.15.H2.L1 (antibody, V domains shown)
VH: QMQLQESGPGLVKPGETLSLTCSVSGASISSSYWSWLRETPGKGLEWIGYTHHSGDTNYAPSLKSRVHLGLHPSKNQVSLSLTSVTAADTAVYYCARTLHGRRIYGVVAFNEWFTYFYWEVWGKGTQVTVSS
VL: SDISVAPGETVRISCGGESIGSRAVQWYQHRAGQAPKLIIYNNQDRPPGIPERFSGSPDIDFGTTATLTITNVEAGDEATYYCHIWDSRRPTNWVFGGGTTLTVL
For B1, the neutralization (Table 6 value) [1] was 0.000909, the neutralization (Table 6 value) [2] was 0.00193 and the neutralization (Table 6 value) [3] was 0.00689. It also gave a neutralization (Table 6 value) [4] of 0.743, a neutralization (Table 6 value) [5] of 0.00436 and a neutralization (Table 6 value) [6] of 0.00114. The neutralization (Table 6 value) [7] was 0.00837, the neutralization (Table 6 value) [8] was 0.00104 and the neutralization (Table 6 value) [9] was 0.00145. The neutralization (Table 6 value) [10] was 0.00143, the neutralization (Table 6 value) [11] was 0.00727 and the neutralization (Table 6 value) [12] was 0.00206. For the same binder, the neutralization (Table 6 value) [13] was 0.00664, the neutralization (Table 6 value) [14] was 0.00577 and the neutralization (Table 6 value) [15] was 0.0132. For the same binder, the neutralization (Table 6 value) [16] was 0.00235, the neutralization (Table 6 value) [17] was 0.0053 and the neutralization (Table 6 value) [18] was 0.00346. For the same binder, the neutralization (Table 6 value) [19] was 0.873, the neutralization (Table 6 value) [20] was 0.00106 and the neutralization (Table 6 value) [21] was 0.0127. For the same binder, the neutralization (Table 6 value) [22] was 0.00197, the neutralization (Table 6 value) [23] was 0.0488 and the Breadth [24] was 77%. The GeoMean [24] was 0.004, the neutralization (Table 6 value) [25] was 0.0048 and 0.00672 and the neutralization (Table 6 value) [26] was 0.435. It also gave a neutralization (Table 6 value) [27] of 0.000394, a neutralization (Table 6 value) [28] of 0.00194 and a neutralization (Table 6 value) [29] of 0.000174. The neutralization (Table 6 value) [30] was 0.00203, the neutralization (Table 6 value) [31] was 0.000842 and the neutralization (Table 6 value) [32] was 0.00583.
